In patent US20070207519A1 (SANDOZ, published 2007):

Biological target: T1, β-subunit of wild-type CPC acylase derived from Pseudomonas sp. SE83 (Pseudomonas sp. SE83, UniProt P15558 240-774)
T1 construct: About 58 kDa subunit of 535 amino acids; also called AcyII β-subunit; CPC acylase β-subunit
T1 sequence: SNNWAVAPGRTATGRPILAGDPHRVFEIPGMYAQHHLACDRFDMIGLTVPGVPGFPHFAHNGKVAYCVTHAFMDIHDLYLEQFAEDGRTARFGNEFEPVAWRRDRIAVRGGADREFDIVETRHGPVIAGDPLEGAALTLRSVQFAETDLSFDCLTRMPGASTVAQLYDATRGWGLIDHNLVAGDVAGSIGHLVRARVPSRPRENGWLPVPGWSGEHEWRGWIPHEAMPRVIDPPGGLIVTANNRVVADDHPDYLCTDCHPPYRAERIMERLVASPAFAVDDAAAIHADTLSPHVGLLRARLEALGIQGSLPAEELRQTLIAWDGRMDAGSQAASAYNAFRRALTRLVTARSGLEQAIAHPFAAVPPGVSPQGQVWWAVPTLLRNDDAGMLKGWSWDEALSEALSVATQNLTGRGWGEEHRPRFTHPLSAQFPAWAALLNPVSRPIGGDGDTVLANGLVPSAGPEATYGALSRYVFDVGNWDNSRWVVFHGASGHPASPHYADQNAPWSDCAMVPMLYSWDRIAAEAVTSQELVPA
Assay: non-denaturing PAGE and MALDI-TOF of the purified enzyme (single species of about 83 kDa) against denaturing SDS-PAGE (bands of 25 kDa and 58 kDa)
Excerpt: Further, the active fraction of wild-type CPC acylase obtained in Example <2-1> was subjected to non-denaturing PAGE and Coomasie blue staining. As a result, a single band was detected at a position corresponding to the molecular weight of about 83 kDa, which means that the wild-type CPC acylase was purely purified (FIGS. 11a to 11c). Together with the result of non-denaturing PAGE, MALDI-TOF mass spectrophotometry analysis confirmed that the molecular weight of purified enzyme (that is, the active CPC acylase) is about 83 kDa. Furthermore, about 25 kDa of band corresponding to α-subunit and about 58 kDa of band corresponding to β-subunit were detected by denaturing SDS-PAGE.

B1: α-subunit of wild-type CPC acylase derived from Pseudomonas sp. SE83 (enzyme)
chain: TMAAKTDREALQAALPPLSGSLSIPGLSAPVRVQRDGWGIPHIKASGEADAYRALGFVHAQDRLFQMELTRRKALGRAAEWLGAEAAEADILVRRLGMEKVCRRDFEALGAEAKDMLRAYVAGVNAFLASGAPLPIEYGLLGAEPEPWEPWHSIAVMRRLGLLMGSVWFKLWRMLALPVVGAANALKLRYDDGGQDLLCIPPGVEAERLEADLAALRPAVDALLKAMGG
notes: About 25 kDa subunit of 229 amino acids; also called AcyII α-subunit; CPC acylase α-subunit
Question: Does B1 bind?
Answer: binds
